Results on 30 sequences are retold here after the nanobody polyreactivity screen of Harvey et al. (2022).

This data set can be described thus: yeast display, Sf9 membrane polyspecificity reagent, FACS + sequencing; frameworks hold sequencing errors. In outline: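 Polyreactivity labels are assigned by the sorting gate from which each nanobody was recovered. The gates were low and high (top ~1%), set on anti-HA fluorescence for expression and streptavidin fluorescence for reagent binding. Before sorting, galactose-induced (36–48 hours) yeast display cells were stained for 1 hour at 4 °C with 10% biotinylated, detergent-solubilized Sf9 membrane reagent.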
“QVQLVESGGGLVQAGGSLRLSCAASGSNFDDYVMGWYRQAPGKERELVAGINSRGTSTDYADSVKGRFTISRDNAQNTVYLQMNSLKPEDTAVYYCAADDSHGYDYWGQGTQVTVSS”: the “polyreactivity (PSR sort gate)” value is given as “low polyreactivity”.
“QVQLVESGGGLVQAGGSLRLSCAASGSNFDSYAMGWYRQAPGKERVLVAAITRSSVSTYYADSVKGRFTISRDNAKYTVYLQMNSLKPEDTAVYYCAAEDEWSLLYLWFGEYDYWGQGTQVTVSS”: the “polyreactivity (PSR sort gate)” value was “low polyreactivity”.
“QVQLVESGGGLVQAGGSLRLSCAASGSNFDYYTMGWYRQAPGKERELVAAISRSGGSTRYADSVKGRFTISRDNAKNTVYLQMNSLKPEDTGVSYCAAGARQGVYRGGDYWGQGTQVTVSS”: the “polyreactivity (PSR sort gate)” value was “low polyreactivity”.
Take “QVQLVESGGGLVQAGGSLRLSCAASGSNFGPNAMGWYRQAPGKERELVAAIRSNGGRTYYADSVKGRFTISRDNAKNTVYLQMNRLKPEDTAVYYCAAPHYPYDTPYGYWGHGTQVTVSS”: the “polyreactivity (PSR sort gate)” value is “low polyreactivity”.
Regarding “QVQLVESGGGLVQAGGSLRLSCAASGSNFGSYTMGWYRQAPGKERELDAAITSGGGNTYYADSVKGRFTISRDNAKNTVYLQMNSLKPEDTAVYYCNATVRGRNALGRVQKYYYWGQGTQVTVSS”, the “polyreactivity (PSR sort gate)” value is “high polyreactivity”.
On to “QVQLVESGGGLVQAGGSLRLSCAASGSNFGYYAMGWYRQAPGKERELVAAISWRGGSTYYADSVTGRFTISRDNAKNTVYLQMNSLTPEDTAVYDCAAPVGNYGSFDYWGQGTQVTVSS”, for which the “polyreactivity (PSR sort gate)” value is “low polyreactivity”.
“QVQLVESGGGLVQAGGSLRLSCAASGSNFHGNAMGWSRQAPGKERELVAAISQSGDSTYYADSVKGRFTISRDNAKNTVYLQMNSLKPEDTAVYYCAARSGYRGYYHFYYWGQGTQVTVSS”: the “polyreactivity (PSR sort gate)” value is recorded as “high polyreactivity”.
With “QVQLVESGGGLVQAGGSLRLSCAASGSNFIGYAMGWYRQEPGKERELVAAISNSGGRTYYADSVKGRFTISRDNAKNTVYLQMNSLKPEDTAVYYCNVAYRIPYRMDYWGQGTQVTVSS”, the “polyreactivity (PSR sort gate)” value was “high polyreactivity”.
Consider “QVQLVESGGGLVQAGGSLRLSCAASGSNFINNAMGWYRQAPGKERELVAAISGNADRTYYADSVKGRFTISRDNAKNTLYLQMNSLKPEETAVYYCNKGYGVYYTFGSWGQGTQVTVSS”, for which the “polyreactivity (PSR sort gate)” value is on record as “low polyreactivity”.
For “QVQLVESGGGLVQAGGSLRLSCAASGSNFNIKAIGWYRQAPGKERELVATIPSGGTTSSADSVNGRFTISRDNAKNTVYLQMNSLKPEDTAVYYCYAEIYPIVKAGRHHRRRYDYWGQATQVTVSS”, the “polyreactivity (PSR sort gate)” value is “low polyreactivity”.
Turning to “QVQLVESGGGLVQAGGSLRLSCAASGSNFNNNAMGWYRQAPGKERELVASISLSAGSTYYADSVKGRFTISRDNAKNTVYLQMNSLKPEDTAVYYCAAEVGYWGYQISGDYWGQGTQVTVSS”, the “polyreactivity (PSR sort gate)” value is “low polyreactivity”.
As to “QVQLVESGGGLVQAGGSLRLSCAASGSNFNYNDMGWSRQAPGKERELVAAIDSSGTSTYYADSVKGRFTISRDNAKNTVYLQMNSLKPEDTAVYYCNADSSLGFGYWGQGTQVTVSS”, the “polyreactivity (PSR sort gate)” value is “low polyreactivity”.
Under “QVQLVESGGGLVQAGGSLRLSCAASGSNFQRYTMGWYSQAPGKERELVAAITSRSGRTYYADSVKGRFTISRDNAKNTVYLQMNSLKPEDTAVYYCATVPYDQTRGYKYDYWGQGTQVTVSS” stands “high polyreactivity”; under “QVQLVESGGGLVQAGGSLRLSCAASGSNFQVYAMGWYRQAPGKERELVATIRRTGGSTYYADSVKGRFTISRDNAKNTVYLQMNSLKPEDTAVYYCAARTYGGYVLRLDYWGQGTQVTVSS”, “high polyreactivity”.
To “QVQLVESGGGLVQAGGSLRLSCAASGSNFRNNAMGWYRQAPGKERELVASISSSGDSTYADSVKGRFTISRDNAMITVYLQMNSLKPEDTAVYYCARDYLSPYAVDYWGQGTQVTVSS” belongs “low polyreactivity”.
To “QVQLVESGGGLVQAGGSLRLSCAASGSNFRPYAMGWYRPAPGKERELVAAISYRGGSTYYADSVKGRFTISRDNAKNTVYLQMNSLKPEDTAVYYCAADSREEGDYWGQGTQVTVSS” belongs “low polyreactivity”.
Turning to “QVQLVESGGGLVQAGGSLRLSCAASGSNFRRNAMGWYRQAPGKERELVAAISSNGGSTYYADSVKGRFTISRDNAKNTVYLQLNSLKPEDSAVYYCNALGRVRYSPRYGYDYWGQGTQVTVSS”, the “polyreactivity (PSR sort gate)” value was “high polyreactivity”.
Turning to “QVQLVESGGGLVQAGGSLRLSCAASGSNFRVYAMGWYRQAPGKERELVAAISSSGVRTSYADSVKGRFTISRDIAKNTVYLQMNSLKPEDTSVYYCADRYPYGYYHWGQGTQVTVSS”, the “polyreactivity (PSR sort gate)” value is listed as “high polyreactivity”.
As for “QVQLVESGGGLVQAGGSLRLSCAASGSNFRYNTMGSYRQAPGKERELVAAITQSGDNTYYADSVKGRFTISRDNAKNTVYLQMNSLKPEDTAVYYCAASGARSDGWTSYDYWGQGTQVTVSS”, the “polyreactivity (PSR sort gate)” value is reported as “low polyreactivity”.
Regarding “QVQLVESGGGLVQAGGSLRLSCAASGSNFRYYAMGWYRQAPGKERELFAAISSNGGSTSYADSVKGRFTISRDNAKNTVYLQMNSLKPEDTAVYYCAATRRWYPTKLYGYWGQGTQVTVSS”, the “polyreactivity (PSR sort gate)” value is on record as “high polyreactivity”.
As to “QVQLVESGGGLVQAGGSLRLSCAASGSNFSHYAMGWYRQAPGKESELVAAISSGDSTNYADSVKGRFTISRDNAKNTVYLQMSSVKPEDTAVYYCAKTRRRLLTRYDYWGQGTQVSVSS”, the “polyreactivity (PSR sort gate)” value is “low polyreactivity”.
To “QVQLVESGGGLVQAGGSLRLSCAASGSNFSYTMGWYRQAPGKERELVAAITSGGITYYADSVKRRFTISRDNAKNTVYLQMNCLKPEDTAVYYCNAYYPYGLASFYYWGQGTQVTVSS” belongs “low polyreactivity”; to “QVQLVESGGGLVQAGGSLRLSCAASGSNFVVNAMGWYRQAPGKERELVAAITQSGGSTFYADSVKGRFTISRDNAKNTVYLLMNSLKPEDSAVYYWGQGTQVTVSS”, “low polyreactivity”.
Consider “QVQLVESGGGLVQAGGSLRLSCAASGSNFVYNAMGRNRQAPGKERELVAAISSGGRTNYADSVKGRFTISRDNANNTVYLQMNSLKPEDTAVYYCADEGLLWWSGYYYWGQGTQVTVYS”, for which the “polyreactivity (PSR sort gate)” value is on record as “high polyreactivity”.
For the sequence “QVQLVESGGGLVQAGGSLRLSCAASGSNFWAYTMGWYRQAPGKERELVAVITDSTGSTYYADSVKGRFTISRDNAMNTVFLQMNSLKPEDTAVYYCAARLWIGYLKYDYWGQGTQVTVSS”, the “polyreactivity (PSR sort gate)” value is “high polyreactivity”.
With “QVQLVESGGGLVQAGGSLRLSCAASGSNFWLYAMGWYRQAPGKERELVAAIRSGDRTNYADSVKGRFTISRDNAKNTVYLQMNSLKPEDTAVYYCAAVAYLNWTPHYYWGQGTQVTVSS”, the “polyreactivity (PSR sort gate)” value is listed as “low polyreactivity”.
With “QVQLVESGGGLVQAGGSLRLSCAASGSNFYIYAMGRYRQAPGKERELVAAISYSGGRTTYADSVKGRFTISRDYAKNTVYLQMNSLKPEDTAVYYCAAGFSYYGLAVAPYRSWGRYYNWGQGTQVTVSS”, the “polyreactivity (PSR sort gate)” value was “high polyreactivity”.
On to “QVQLVESGGGLVQAGGSLRLSCAASGSNFYNNVMGWYRQAPGKERELVAAINSGGRTYYADSVKGRFTISRDNAKNTVYLQMNSLKPEDTAVYYCAVGYGRAARMDYWGQGTQVTVSS”, for which the “polyreactivity (PSR sort gate)” value is “high polyreactivity”.
Take “QVQLVESGGGLVQAGGSLRLSCAASGSNFYPYAMGWYRQAPGKERELVAGITGGGRTYYADSVKGRFTISRDNAKNTVYLQMNSLKPEDTAVYYCAAVDYVSYYIPFHYEYYWGQGTQVTVSS”: the “polyreactivity (PSR sort gate)” value is listed as “low polyreactivity”.
In the case of “QVQLVESGGGLVQAGGSLRLSCAASGSNFYVYAMGWYRQAPGKERELVAAIRWSGGSTYYADSVKGRFTISRDNANYPVYLQMNSLKPEDTADYYCAADAHPDSVWYGEYDYWGQGTQLTVSS”, the “polyreactivity (PSR sort gate)” value is “low polyreactivity”.
